Patent US20260151496A1 (FUDAN UNIVERSITY, published 2026)

B1: HER2 VHH-FC1 fusion protein 1-B05 (Fc fusion)
chain: AVQLVESGGGPGGSLRLSCAASGITFFRHTLGWYRQAPGKQRELVASITGGESTNYADSVKSRFTISRDNAKNMVFLQMNSLKPEDTALYYCNSKWDAAGVEFWGKGTLVTVSSEPKSSDKTHTCPPCPAPEFEGGPSVFLFPPKPKDTLMISRTPEVTCVVVDVSHEDPEVKFNWYVDGVEVHNAKTKPREEQYNSTYRVVSVLTVLHQDWLNGKEYKCKVSNKALPASIEKTISKAKGQPREPQVYTLPPSRDELTKNQVSLTCLVKGFYPSDIAVEWESNGQPENNYKTTPPVLDSDGSFFLYSKLTVDKSRWQQGNVFSCSVMHEALHNHYTQKSLSLSPGK
notes: 25; also called 1-B05-FC1; chimeric nanobody 1-B05
B2: HER2 VHH-FC1 fusion protein 1-C09 (Fc fusion)
chain: DVQLVESGGGLVQPGGSLRLSCEASGLTFRRYHFSWYRQPPGKERELVAVISDTGSTTNYTDSVKGRFTISRDLARNTVFLQLNSLKPDDTAVYYCNAKWPIIAADWWGQGTQVTVSSEPKSSDKTHTCPPCPAPEFEGGPSVFLFPPKPKDTLMISRTPEVTCVVVDVSHEDPEVKFNWYVDGVEVHNAKTKPREEQYNSTYRVVSVLTVLHQDWLNGKEYKCKVSNKALPASIEKTISKAKGQPREPQVYTLPPSRDELTKNQVSLTCLVKGFYPSDIAVEWESNGQPENNYKTTPPVLDSDGSFFLYSKLTVDKSRWQQGNVFSCSVMHEALHNHYTQKSLSLSPGK
notes: 25; also called 1-C09-FC1; 1-C9-FC1
B3: HER2 VHH-FC1 fusion protein 2-F03 (Fc fusion)
chain: EVQLVESGGGLVQPGGSLRLSCAASGLTFRRYHMSWYRQAPGKERELVAVISDTGTTNYAESVKGRFTISRDNSRSTVFLQLNSLKPDDTAVYYCNGRWPAVAADWWGQGTQVTVSSEPKSSDKTHTCPPCPAPEFEGGPSVFLFPPKPKDTLMISRTPEVTCVVVDVSHEDPEVKFNWYVDGVEVHNAKTKPREEQYNSTYRVVSVLTVLHQDWLNGKEYKCKVSNKALPASIEKTISKAKGQPREPQVYTLPPSRDELTKNQVSLTCLVKGFYPSDIAVEWESNGQPENNYKTTPPVLDSDGSFFLYSKLTVDKSRWQQGNVFSCSVMHEALHNHYTQKSLSLSPGK
notes: 25; also called 2-F03-FC1; chimeric nanobody 2-F03
B4: HER2 VHH-FC1 fusion protein 1-C10 (Fc fusion)
chain: QVQLVESGGDLVQPGGSLRLSCATSGLTFRRYELKWYRQAPGKERELVAGITPASGSRNYADSVKGRFTISRDDAKMTVYLQMNSLEPEDTAVYYCNAYWMIPQHIENNYWGKGTLVTVSSEPKSSDKTHTCPPCPAPEFEGGPSVFLFPPKPKDTLMISRTPEVTCVVVDVSHEDPEVKFNWYVDGVEVHNAKTKPREEQYNSTYRVVSVLTVLHQDWLNGKEYKCKVSNKALPASIEKTISKAKGQPREPQVYTLPPSRDELTKNQVSLTCLVKGFYPSDIAVEWESNGQPENNYKTTPPVLDSDGSFFLYSKLTVDKSRWQQGNVFSCSVMHEALHNHYTQKSLSLSPGK
notes: 25; also called 1-C10-FC1; chimeric nanobody 1-C10
B5: HER2 VHH-FC1 fusion protein 2-C07 (Fc fusion)
chain: AVQLVESGGGLVQPGGSLRLSCAASGLTFMRYDINWYRQAPGKERELVAALDSSSGRTNYADFTEGRFTISRNNAKNSAYLQMNNLKPEDTASYYCNAQWKRIGADYWGQGTQVTVFSEPKSSDKTHTCPPCPAPEFEGGPSVFLFPPKPKDTLMISRTPEVTCVVVDVSHEDPEVKFNWYVDGVEVHNAKTKPREEQYNSTYRVVSVLTVLHQDWLNGKEYKCKVSNKALPASIEKTISKAKGQPREPQVYTLPPSRDELTKNQVSLTCLVKGFYPSDIAVEWESNGQPENNYKTTPPVLDSDGSFFLYSKLTVDKSRWQQGNVFSCSVMHEALHNHYTQKSLSLSPGK
notes: 25; also called 2-C07-FC1; chimeric nanobody 2-C07
B6: HER2 VHH-FC1 fusion protein 1-G07 (Fc fusion)
chain: QVQLVESGGGKAQPGGSLRLSCVASRITFRHYDLSWYRQAPGQERELVATVTNGGVITYADSVKGRFTISRDNAKNTVQLQMNNLKPEDTAVYYCNAVWVYLQRLTQNKKENDYWGPGTQVTVSSEPKSSDKTHTCPPCPAPEFEGGPSVFLFPPKPKDTLMISRTPEVTCVVVDVSHEDPEVKFNWYVDGVEVHNAKTKPREEQYNSTYRVVSVLTVLHQDWLNGKEYKCKVSNKALPASIEKTISKAKGQPREPQVYTLPPSRDELTKNQVSLTCLVKGFYPSDIAVEWESNGQPENNYKTTPPVLDSDGSFFLYSKLTVDKSRWQQGNVFSCSVMHEALHNHYTQKSLSLSPGK
notes: 25; also called 1-G07-FC1; chimeric nanobody 1-G07

These binders were tested against T1, human HER2 His6 protein, extracellular domain (NCBI NP_004439.2, Met 1-Thr 652), C-terminal polyhistidine tag (human, UniProt P04626 23-652) (assay: called SPR, run on ForteBio OCTET R2; antibody captured on Protein A sensor, HER2 protein at 500-31.3 nM as analyte, 25 °C).
T1 construct: range 1-652; The stated range includes Met 1; also called HER2-ECD; human HER2-ECD
Method: (§1) […] detection was performed and Protein A sensor was used to solidify the antibody at a curing height of approximately […]. […] Affinity detection: equilibrium for 60 seconds, binding for 180 seconds, dissociation for 180 seconds, detection at 25° C., and kinetic characterization analysis was performed using the ForteBio OCTET R2 system.

Kd | Binder
8.9 nM | B1
12.1 nM | B2
23.2 nM | B3
4.61 nM | B4
7.42 nM | B5

What follows are binders tested against T1, human HER2 His6 protein, extracellular … (assay: ELISA, HER2 protein coated at 1 µg/mL, detection with HRP-labelled protein A, OD 450 nm).
Method: (§2) HER2 protein was diluted to 1 μg/mL with coating solution, coated onto ELISA plate, 100 μL/well, 4° C., overnight. The excess antigens were washed off. The plate was blocked with 1% BSA at room temperature for 2 hours, then 5-fold gradient diluted monoclonal antibodies were added at 100 μL/well, and the plate was incubated at room temperature for 1 hour; the unbound antibodies were washed off, and suitable concentration of horseradish peroxidase labeled Staphylococcus protein A was added at 100 μL/well, and the plate was incubated at room temperature for 0.5 hours. The unbound secondary antibody was washed off. TMB colorimetric solution was added and reacted for about 15 minutes. 1M HCl at 50 μL/well was added to terminate the colorimetric reaction, then the absorbance was measured at 450 nm and the data was analyzed.

EC50 | Binder
0.069 nM | B1
0.125 nM | B2
0.05 nM | B3
0.22 nM | B4
0.128 nM | B6
0.07 nM | B5

Each binder was assayed against T2, HER2 receptor on the surface of NCI-N87 cells (human, UniProt P04626 23-1255) (assay: flow cytometry on NCI-N87 cells, PE-labelled secondary antibody).
T2 construct: whole, on cells; also called HER2 on tumor cell surface
Method: (§3) HER2 overexpressing gastric cancer cell line NCI-N87 was used as the target cell. 100 μL of the test antibody diluted in a 10 folds gradient was used as the primary antibody. It was mixed with 1×10⁵ tumor cells suspended in 100 μL RPMI-1640 serum-free medium at final concentrations of 10 μg/mL, 1 μg/mL, and 0.1 μg/mL. The cells were then incubated at 4° C. for 1 hour, washed twice with PBS to remove unbound primary antibodies, and incubated with 200 μL, 2 μg/mL, PE labeled secondary antibodies at 4° C. for 30 minutes. The cells were washed twice with PBS to remove unbound secondary antibodies. Finally, the cells were resuspended in 200 μL PBS and analyzed by flow cytometry to determine the binding affinity of the test antibody to HER2 on the corresponding cell surface.

EC50 | Max MFI | Binder
1.86 nM | 245000 | B1
1.39 nM | 269000 | B2
1.67 nM | 234000 | B3
2.64 nM | 240000 | B4
2.48 nM | 250000 | B6
1.68 nM | 241000 | B5

Molecular target: T2, HER2 receptor on the surface of NCI-N87 …
Assay: as above
Remark: another data set of the same source
Method: as §3

EC50 | Binder
0.144 µg/mL | B1
0.109 µg/mL | B2
0.13 µg/mL | B3
0.209 µg/mL | B4
0.199 µg/mL | B6
0.131 µg/mL | B5

These binders were tested against T1, human HER2 His6 protein, extracellular … (assay: ForteBio OCTET R2, antibody captured on Protein A sensor, HER2 protein in solution, 25 °C).
Method: as §1

koff | kon | Binder
0.0108 s⁻¹ | 1.22e+06 M⁻¹ s⁻¹ | B1
0.0118 s⁻¹ | 974000 M⁻¹ s⁻¹ | B2
0.0108 s⁻¹ | 466000 M⁻¹ s⁻¹ | B3
0.001 s⁻¹ | 217000 M⁻¹ s⁻¹ | B4
0.00251 s⁻¹ | 338000 M⁻¹ s⁻¹ | B5

These binders were tested against T1, human HER2 His6 protein, extracellular … (assay: ELISA, HER2 protein coated at 1 µg/mL, detection with HRP-labelled protein A).
Method: as §2

EC50 | Binder
0.005 µg/mL | B1
0.01 µg/mL | B2
0.004 µg/mL | B3
0.017 µg/mL | B4
0.01 µg/mL | B6
0.005 µg/mL | B5
